Experimental findings from patent US20230399395A1 (SHANGHAI NOVAMAB BIOPHARMACEUTICALS, published 2023) are described below.

What is called Kd is the constant that tells how readily two partners part at equilibrium. Low values mean a tighter complex, high ones a looser complex. The term IC50 denotes the concentration at which inhibition is half-maximal.

In experiment [1] the target is T1, mouse IL5 (mouse, UniProt P04401 21-133).
T1 sequence (looked up): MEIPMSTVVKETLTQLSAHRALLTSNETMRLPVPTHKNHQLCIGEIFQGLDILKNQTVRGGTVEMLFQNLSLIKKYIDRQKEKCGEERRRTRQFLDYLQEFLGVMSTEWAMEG
In words: ELISA, coated IL5, anti-HA detection. A general note: ELISA stands for enzyme-linked immunosorbent assay.
Procedure: After washing 5 times with PBST, 300 μL 1% BSA was added to each well for blocking at room temperature for 2 hours. […] Then the plate was washed for 5 times with PBST, 100 μL diluted mouse anti-HA antibody (1:2000 dilution) was added and incubated for 1 hour at 37° C. After washing 5 times with PBST, 100 μL diluted alkaline phosphatase modified anti-mouse antibody (1:2000 dilution) was added and incubated at 37° C. for 1 hour. Then the plate was washed with PBST for 5 times, developing solution was added, and the absorption value was measured at 405 nm wavelength by a microplate reader.

Experiment [2] has as its target T2, human IL5 (human, UniProt P05113 20-134, biotinylated (IL5-biotin) in Examples 2, 5, 6, 9 and 11; site not stated).
T2 construct: also called interleukin 5; IL5 antigen protein
In words: BLI (Fortebio Red96), 1:1 global fit. Background: In BLI a coated tip is dipped into the sample, and binding shifts an interference pattern.

Experiment [3] concerns the target T2, human IL5. In words: Flow cytometry, blocking of IL5-biotin binding to HEK293F cells expressing IL5R. (In general: Flow cytometry measures light scatter and fluorescence of single cells or particles in a stream.)
Procedure: Specifically, The HEK293F stable cells with high expression of IL5R were centrifuged at 1000 rpm for 5 min, and the supernatant was discarded. The cells were washed once with 5 mL PBS and then resuspended with 2 mL PBS. After counting, the cells were divided into a 96-well plate with 3×10⁵ cells per well. […] After centrifugation at 4° C. at 3000 rpm, 200 μL PBS was added to each well, and then centrifuged at 3000 rpm and 4° C. for 4 min after resuspension. The diluted SA-PE antibody (diluted at 0.3:100) was added and incubated at 4° C. for 20 min. After centrifugation at 4° C. for 4 min at 3000 rpm, the supernatant was discarded, and 200 μL PBS was added to each well to wash the cells twice. Then 200 μL PBS was added to resuspend the cells, transfer to a flow tube, and the PE signal of each sample was detected by flow cytometry.
For experiment [4], the target named is T2, human IL5. The experiment can be described thus: cell-based or functional assay.

B1: Nb25 (VHH)
VHH: QVQLQESGGGSVQAGGSLRLSCAASEYTYSRYCMGWFRQVPGKEREGVATIDSDGSTSYADSVKGRFTISKDNAKNTLYLQMNSLKPEDTAMYYCAARYFYIATTGLRPCGEYEYNYWGQGTQVTVSS
notes: Camel nanobody, prokaryotic expression from the pMECS vector; It was detected with anti-HA antibody
For the molecule B1, the binding result in experiment [1] is given as “no binding”. This molecule registered a Kd in experiment [2] below 1 nM.

B2: Nb21 (VHH)
VHH: QVQLQESGGGSAQAGGSLKLSCVVSGYPYSGDYCMGWFRQAPGKEREGVAAFYTGGGSTYYADSVKGRFTTSQDNATSTFHLQMNSLKPEDTATYYCAADPWSVYGGSCGVKDPNPKAFNYWGQGTQVTVSS
notes: Camel nanobody, prokaryotic expression from the pMECS vector; also called Nb21-biotin
Take B2: the binding result in experiment [1] is given as “no binding”. Besides, in experiment [2], the Kd was below 1 nM.

B3: bivalent biepitope IL5 nanobody HuNb66-HuNb21 expressed by yeast (VHH)
chain: EVQLQESGGGLVQPGGSLRLSCAASGYTVSSNMGWFRQAPGKEREGVAAIYPDGATYYADSVKGRFTISRDNSENTLYLQMNSLRAEDTAMYYCAADLAFNGLGTLALHGYWGQGTLVTVSSGGGGSGGGGSGGGGSGGGGSEVQLQESGGGLVQPGGSLRLSCAASGYPYSGDYCMGWFRQAPGKEREGVAAFYTGGGSTYYADSVKGRFTISRDNSKNTLYLQMNSLRAEDTAVYYCAADPWSVYGGSCGVKDPNPKAFNYWGQGTLVTVSS
notes: also called bivalent biepitopic antibody HuNb66-HuNb21
For the molecule B3, the IC50 in experiment [3] was determined as 0.841 µg/mL. Besides, in experiment [4], the “IC50 of inhibition of the proliferation of TF-1 cells induced by IL5 (CCK8, OD450)” value was determined as 0.0512 nM.

B4: Nb92 (VHH)
VHH: QVQLQESGGGLVQPGGSLRLSCAASGFTFSNYYMSWVRQAPGKGLEWVSSISSDGSNTYYEDSVKGRFTISRDNANNTLYLQMNSLKSEDTALYHCATDLYDDSWYDHWGQGTQVTVSS
notes: as for B1
B4: the binding result in experiment [1] was “no binding”. The molecule also yielded a Kd in experiment [2] below 1 nM.

B5: Nb66 (VHH)
VHH: QVQLQESGGGSVQAGGSLRLSCAASGYTVSSNMGWFRQAPGKEREGVAAIYPDGATYYADSVKGRFTISQDNAENTVYLQMNSLKPEDTAMYYCAADLAFNGLGTLALHGYWGQGTQVTVSS
notes: as for B1
For the molecule B5, the binding result in experiment [1] was “no binding”. The molecule also returned a Kd in experiment [2] below 1 nM.
